The values below come from patent publication US20070148774A1 (MEDICAL RESEARCH COUNCIL, published 2007).

The target of assay [1] is T1, turkey egg-white lysozyme (turkey, UniProt P00703 19-147).
T1 construct: also called turkey egg lysozyme; turkey lysozyme
Nature of the assay: phage ELISA on turkey egg white lysozyme after 4 rounds of selection.

Assay [2] concerns the target T2, human lysozyme (human, UniProt P61626 19-148).
T2 construct: also called HUL
T2 sequence (looked up): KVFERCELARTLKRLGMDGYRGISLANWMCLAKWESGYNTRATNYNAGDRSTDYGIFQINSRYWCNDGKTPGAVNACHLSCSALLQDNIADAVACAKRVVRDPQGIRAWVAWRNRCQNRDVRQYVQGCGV
Nature of the assay: phage ELISA, antigen coated at 1 mg/ml, sheep anti-M13 serum.
Protocol: Before use, this solution was removed, the plate rinsed several times in PBS and incubated with 200 ul of 2% milk powder/PBS for 1 hour. After rinsing several times with PBS, 100 ul of the test samples were added and incubated for 1 hour. Plates were washed (3 rinses in 0.05% Tween 20/PBS followed by 3 rinses in PBS alone). Bound phage antibodies were detected by adding 200 ul/well of a 1/1000 dilution of sheep anti-M13 polyclonal antiserum (gift from G. Winter, although an equivalent antibody can be readily made by one skilled in the art using standard methodologies) in 2% milk powder/PBS and incubating for 1 hour. After washing as above, plates were incubated with biotinylated anti-sheep antibody (Amersham International) for 30 minutes. Plates were washed as above, and incubated with streptavidin-horseradish peroxidase complex (Amersham International).
(§1) 2×10¹⁰ phage transducing units were added to the antigen coated plates in phosphate buffered saline (PBS) containing 2% skimmed milk powder (MPBS). Plates were washed between each step with three rinses of 0.5% Tween-20 in PBS followed by three rinses of PBS.

Assay [3] deals with T3, bovine serum albumin (bovine, UniProt P02769 25-607).
T3 construct: also called BSA
T3 sequence (P02769 25-607 limits assumed): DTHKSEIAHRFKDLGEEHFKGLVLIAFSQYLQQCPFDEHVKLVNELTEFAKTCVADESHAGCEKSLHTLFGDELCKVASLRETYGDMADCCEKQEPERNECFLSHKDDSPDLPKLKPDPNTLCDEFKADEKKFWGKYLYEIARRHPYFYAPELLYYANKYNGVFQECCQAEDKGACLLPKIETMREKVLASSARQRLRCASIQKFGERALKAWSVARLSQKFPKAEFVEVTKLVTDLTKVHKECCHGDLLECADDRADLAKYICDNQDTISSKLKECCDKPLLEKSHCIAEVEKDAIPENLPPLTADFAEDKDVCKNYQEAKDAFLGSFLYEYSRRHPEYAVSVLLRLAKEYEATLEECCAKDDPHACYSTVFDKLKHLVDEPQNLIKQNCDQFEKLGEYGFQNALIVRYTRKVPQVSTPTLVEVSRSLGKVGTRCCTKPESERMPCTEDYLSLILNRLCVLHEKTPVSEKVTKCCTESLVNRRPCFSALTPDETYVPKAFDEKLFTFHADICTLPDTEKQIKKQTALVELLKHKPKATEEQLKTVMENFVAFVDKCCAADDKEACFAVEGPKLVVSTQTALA
The assay is described as follows: phage ELISA, antigens coated at 200 µg/ml, average absorbance of duplicates after 10 minutes.
Protocol: as §1
ELISA plates were coated at 37° C. in 50 mM NaHCO3 at a protein concentration of 200 μg/ml.

For assay [4], the target named is T3, bovine serum albumin. Nature of the assay: phage ELISA (FIG. 51, clone 1).
The target in assay [5] is T3, bovine serum albumin. The assay is described as follows: phage ELISA (FIG. 51, clone 9).
For assay [6], the target named is T1, turkey egg-white lysozyme. The assay is described as follows: phage ELISA on plates coated with TEL; signal on BSA subtracted.
Assay [7] concerns the target T4, hen egg-white lysozyme (hen, UniProt P00698 19-147).
T4 construct: also called HEL; hen egg lysozyme
The assay is described as follows: phage ELISA on plates coated with HEL; signal on BSA subtracted.

Assay [8] concerns the target T3, bovine serum albumin. Nature of the assay: phage ELISA (FIG. 51, clone 3).

T1 sequence (P00703 19-147): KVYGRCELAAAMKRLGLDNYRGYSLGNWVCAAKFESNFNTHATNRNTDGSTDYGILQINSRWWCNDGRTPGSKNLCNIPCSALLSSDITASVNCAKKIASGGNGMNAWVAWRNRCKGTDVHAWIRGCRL
T4 sequence (P00698 19-147 limits assumed): as the sequence (P00703 19-147) above, with Y3F, L15H, H41Q, K73R, A99V, G101D, H121Q counted along it

B1: lysozyme binder scFv from the unimmunized human library (VH13.1 / VL13.1), on phage (scFv, V domains shown)
VH: QVQLVQSGAEVKKPGQSLMISCQGSGYSFSNYWIGWVRQMPGKGLEWMGIIYPGDSDTRYSPSFQGQVTISADKSISTAYLHWSSLKASDTALYYCARLVGGTPAYWGQGT
VL: HVILTQPASVSGSPGQSITISCTGSSRDVGGYNYVSWYQHHPGKAPKLLISEVTNRPSGVSNRFSGSKSGNTASLTISGLQAEDEADYFCASYTSSKTYVFGG
notes: scFv with (Gly4Ser)3 linker on pHEN1 phagemid particles
Regarding B1, the binding result in assay [1] is recorded as “binds”.

B2: fdTscFvD1.3 (phage antibody displaying the single chain Fv of anti-lysozyme antibody D1.3) (scFv, not shown: large carriers)
scFv: QVQLQESGPGLVAPSQSLSITCTVSGFSLTGYGVNWVRQPPGKGLEWLGMIWGDGNTDYNSALKSRLSISKDNSKSQVFLKMNSLHTDDTARYYCARERDYRLDYWGQGTTVTVSSGGGGSGGGGSGGGGSDIELTQSPASLSASVGETVTITCRASGNIHNYLAWYQQKQGKSPQLLVYYTTTLADGVPSRFSGSGSGTQYSLKINSLQPEDFGSYYCQHFWSTPRTFGGGTKLEIK
modifications: scFv displayed on fd phage as a fusion near the N-terminus of g3p
notes: also called pAb D1.3; pAb (D1.3)
B2: the binding result is listed as “no binding” in assay [2] and “no binding (tested: one amount, as in example 6)” in assay [3].

B3: fdCAT2 scFvD1.3 phage (scFv, not shown: large carriers)
scFv: B2 scFv
modifications: scFv displayed on fd phage as an N-terminal fusion to g3p
notes: also called original D1.3 scFv
On to B3, for which, in assay [4], the binding result is reported as “no binding”.

B4: clone M21 (clone 9 of FIG. 51): scFv of D1.3 VH with a light chain selected from the VLK library of an unimmunised mouse (scFv)
scFv: QVQLQESGPGLVAPSQSLSITCTVSGFSLTGYGVNWVRQPPGKGLEWLGMIWGDGNTDYNSALKSRLSISKDNSKSQVFLKMNSLHTDDTARYYCARERDYRLDYWGQGTTVTVSSGGGGSGGGGSGGGGSDIELTQSPALMAASPGEKVTITCSVSSSISSSNLHWYQQKSETSPKPWIYGTSNLASGVPVRFSGSGSGTSYSLTISSMEAEDAATYYCQQWSSYPLTFGAGTKLEIKR
notes: not shown: fd gene III protein (g3p), the phage display partner fused after the scFv through the NotI AAA junction
Take B4: the binding result in assay [5] is on record as “no binding”; in assay [6] it was “binds”; in assay [7], “binds”.

B5: clone MF1 (clone 3 of FIG. 51): scFv of D1.3 VH with a light chain selected from the VLK library of an unimmunised mouse (scFv)
scFv: QVQLQESGPGLVAPSQSLSITCTVSGFSLTGYGVNWVRQPPGKGLEWLGMIWGDGNTDYNSALKSRLSISKDNSKSQVFLKMNSLHTDDTARYYCARERDYRLDYWGQGTTVTVSSGGGGSGGGGSGGGGSDIELTQSPSSLSASLGERVSLTCRASQDIGSSLNWLQQEPDGTIKRLIYATSSLDSGVPKRFSGSRSGSDYSLTISSLESEDFVDYYCLQYASSPWTFGGGTKLELKR
notes: also called M1F; D1.3 M1F; not shown: fd gene III protein (g3p), the phage display partner fused after the scFv through the NotI AAA junction
As to B5, the binding result in assay [8] is reported as “no binding”; in assay [6], “binds”; in assay [7], “binds”.
